# According to patent US6013258A, “Immunogenic peptides from the HPV E7 protein” (priority 1997, dated 2000):
# Target: T1, recombinant HLA-A2 (Homo sapiens, UniProt P04439, D140Y/D185E/D98H/E176V/E277Q/G131W/G231S/I119V/I121R/I166T/I218V/N151K/N90K/P208A/P217A/Q86G/Q94H/R138H/R169H)
# T1 construct: made in house; host or cells: E. coli
# Type: binding
# Conditions: peptide-HLA-A2 complex, monitored by circular dichroism
substance,measurement,value
"A2.2: peptide derived from HPV strain 16 E7 protein, SEQ ID NO:17 (YMLDLQPET) [Peptide A2.2]",Tm (temperature at which 50% of the refolded complexes are melted),52.5 degrees Celsius
